Results published in patent US20210139548A1 (published 2021).
*1 amine or outer side, *2 acyl side, *3 side chain or, on linkers, in order; H or OH if unused. Side-chain parts run from the residue outwards. The star is where a group is joined. C18 diacid = O=C(O)CCCCCCCCCCCCCCCCC(=O)*; γGlu = O=C(O)[C@H](CCC(=O)[*:2])N[*:1]; Isovaleryl = CC(C)CC(=O)*; AEEA = NCCOCCOCC(=O)O

B1: Compound 46 (peptide)
peptide: Isovaleryl-APEK([AEEA-AEEA-γGlu-C18 diacid])PEEEASPEELQRYYVSLRHYYNWLTRQRY-NH2
SMILES: CC(C)CC(=O)N[C@@H](C)C(=O)N1CCC[C@H]1C(=O)N[C@@H](CCC(=O)O)C(=O)N[C@@H](CCCCNC(=O)COCCOCCNC(=O)COCCOCCNC(=O)CC[C@H](NC(=O)CCCCCCCCCCCCCCCCC(=O)O)C(=O)O)C(=O)N1CCC[C@H]1C(=O)N[C@@H](CCC(=O)O)C(=O)N[C@@H](CCC(=O)O)C(=O)N[C@@H](CCC(=O)O)C(=O)N[C@@H](C)C(=O)N[C@@H](CO)C(=O)N1CCC[C@H]1C(=O)N[C@@H](CCC(=O)O)C(=O)N[C@@H](CCC(=O)O)C(=O)N[C@@H](CC(C)C)C(=O)N[C@@H](CCC(N)=O)C(=O)N[C@@H](CCCNC(=N)N)C(=O)N[C@@H](Cc1ccc(O)cc1)C(=O)N[C@@H](Cc1ccc(O)cc1)C(=O)N[C@H](C(=O)N[C@@H](CO)C(=O)N[C@@H](CC(C)C)C(=O)N[C@@H](CCCNC(=N)N)C(=O)N[C@@H](Cc1c[nH]cn1)C(=O)N[C@@H](Cc1ccc(O)cc1)C(=O)N[C@@H](Cc1ccc(O)cc1)C(=O)N[C@@H](CC(N)=O)C(=O)N[C@@H](Cc1c[nH]c2ccccc12)C(=O)N[C@@H](CC(C)C)C(=O)N[C@H](C(=O)N[C@@H](CCCNC(=N)N)C(=O)N[C@@H](CCC(N)=O)C(=O)N[C@@H](CCCNC(=N)N)C(=O)N[C@@H](Cc1ccc(O)cc1)C(N)=O)[C@@H](C)O)C(C)C
B2: Compound 105 (peptide)
peptide: Isovaleryl-APEK([AEEA-AEEA-γGlu-C18 diacid])PEEDAEPEELQEYYVSLRHYYNWLTRQRY-NH2
SMILES: CC(C)CC(=O)N[C@@H](C)C(=O)N1CCC[C@H]1C(=O)N[C@@H](CCC(=O)O)C(=O)N[C@@H](CCCCNC(=O)COCCOCCNC(=O)COCCOCCNC(=O)CC[C@H](NC(=O)CCCCCCCCCCCCCCCCC(=O)O)C(=O)O)C(=O)N1CCC[C@H]1C(=O)N[C@@H](CCC(=O)O)C(=O)N[C@@H](CCC(=O)O)C(=O)N[C@@H](CC(=O)O)C(=O)N[C@@H](C)C(=O)N[C@@H](CCC(=O)O)C(=O)N1CCC[C@H]1C(=O)N[C@@H](CCC(=O)O)C(=O)N[C@@H](CCC(=O)O)C(=O)N[C@@H](CC(C)C)C(=O)N[C@@H](CCC(N)=O)C(=O)N[C@@H](CCC(=O)O)C(=O)N[C@@H](Cc1ccc(O)cc1)C(=O)N[C@@H](Cc1ccc(O)cc1)C(=O)N[C@H](C(=O)N[C@@H](CO)C(=O)N[C@@H](CC(C)C)C(=O)N[C@@H](CCCNC(=N)N)C(=O)N[C@@H](Cc1c[nH]cn1)C(=O)N[C@@H](Cc1ccc(O)cc1)C(=O)N[C@@H](Cc1ccc(O)cc1)C(=O)N[C@@H](CC(N)=O)C(=O)N[C@@H](Cc1c[nH]c2ccccc12)C(=O)N[C@@H](CC(C)C)C(=O)N[C@H](C(=O)N[C@@H](CCCNC(=N)N)C(=O)N[C@@H](CCC(N)=O)C(=O)N[C@@H](CCCNC(=N)N)C(=O)N[C@@H](Cc1ccc(O)cc1)C(N)=O)[C@@H](C)O)C(C)C
B3: Compound 164 (peptide)
peptide: Isovaleryl-APEK([AEEA-AEEA-γGlu-C18 diacid])PEEDASEEELQEYYVSLRHYYNWLTRQRY-NH2
SMILES: CC(C)CC(=O)N[C@@H](C)C(=O)N1CCC[C@H]1C(=O)N[C@@H](CCC(=O)O)C(=O)N[C@@H](CCCCNC(=O)COCCOCCNC(=O)COCCOCCNC(=O)CC[C@H](NC(=O)CCCCCCCCCCCCCCCCC(=O)O)C(=O)O)C(=O)N1CCC[C@H]1C(=O)N[C@@H](CCC(=O)O)C(=O)N[C@@H](CCC(=O)O)C(=O)N[C@@H](CC(=O)O)C(=O)N[C@@H](C)C(=O)N[C@@H](CO)C(=O)N[C@@H](CCC(=O)O)C(=O)N[C@@H](CCC(=O)O)C(=O)N[C@@H](CCC(=O)O)C(=O)N[C@@H](CC(C)C)C(=O)N[C@@H](CCC(N)=O)C(=O)N[C@@H](CCC(=O)O)C(=O)N[C@@H](Cc1ccc(O)cc1)C(=O)N[C@@H](Cc1ccc(O)cc1)C(=O)N[C@H](C(=O)N[C@@H](CO)C(=O)N[C@@H](CC(C)C)C(=O)N[C@@H](CCCNC(=N)N)C(=O)N[C@@H](Cc1c[nH]cn1)C(=O)N[C@@H](Cc1ccc(O)cc1)C(=O)N[C@@H](Cc1ccc(O)cc1)C(=O)N[C@@H](CC(N)=O)C(=O)N[C@@H](Cc1c[nH]c2ccccc12)C(=O)N[C@@H](CC(C)C)C(=O)N[C@H](C(=O)N[C@@H](CCCNC(=N)N)C(=O)N[C@@H](CCC(N)=O)C(=O)N[C@@H](CCCNC(=N)N)C(=O)N[C@@H](Cc1ccc(O)cc1)C(N)=O)[C@@H](C)O)C(C)C
B4: Compound 188 (peptide)
peptide: Isovaleryl-APEK([AEEA-AEEA-γGlu-C18 diacid])PEEDAEPEELQRYYVSLRHYYNWLTRQRY-NH2
SMILES: CC(C)CC(=O)N[C@@H](C)C(=O)N1CCC[C@H]1C(=O)N[C@@H](CCC(=O)O)C(=O)N[C@@H](CCCCNC(=O)COCCOCCNC(=O)COCCOCCNC(=O)CC[C@H](NC(=O)CCCCCCCCCCCCCCCCC(=O)O)C(=O)O)C(=O)N1CCC[C@H]1C(=O)N[C@@H](CCC(=O)O)C(=O)N[C@@H](CCC(=O)O)C(=O)N[C@@H](CC(=O)O)C(=O)N[C@@H](C)C(=O)N[C@@H](CCC(=O)O)C(=O)N1CCC[C@H]1C(=O)N[C@@H](CCC(=O)O)C(=O)N[C@@H](CCC(=O)O)C(=O)N[C@@H](CC(C)C)C(=O)N[C@@H](CCC(N)=O)C(=O)N[C@@H](CCCNC(=N)N)C(=O)N[C@@H](Cc1ccc(O)cc1)C(=O)N[C@@H](Cc1ccc(O)cc1)C(=O)N[C@H](C(=O)N[C@@H](CO)C(=O)N[C@@H](CC(C)C)C(=O)N[C@@H](CCCNC(=N)N)C(=O)N[C@@H](Cc1c[nH]cn1)C(=O)N[C@@H](Cc1ccc(O)cc1)C(=O)N[C@@H](Cc1ccc(O)cc1)C(=O)N[C@@H](CC(N)=O)C(=O)N[C@@H](Cc1c[nH]c2ccccc12)C(=O)N[C@@H](CC(C)C)C(=O)N[C@H](C(=O)N[C@@H](CCCNC(=N)N)C(=O)N[C@@H](CCC(N)=O)C(=O)N[C@@H](CCCNC(=N)N)C(=O)N[C@@H](Cc1ccc(O)cc1)C(N)=O)[C@@H](C)O)C(C)C

What follows are binders tested against human NPY4 receptor (human, UniProt P50391 1-375) (assay: cell-based or functional assay).
Sequence of human NPY4 receptor (P50391 whole entry): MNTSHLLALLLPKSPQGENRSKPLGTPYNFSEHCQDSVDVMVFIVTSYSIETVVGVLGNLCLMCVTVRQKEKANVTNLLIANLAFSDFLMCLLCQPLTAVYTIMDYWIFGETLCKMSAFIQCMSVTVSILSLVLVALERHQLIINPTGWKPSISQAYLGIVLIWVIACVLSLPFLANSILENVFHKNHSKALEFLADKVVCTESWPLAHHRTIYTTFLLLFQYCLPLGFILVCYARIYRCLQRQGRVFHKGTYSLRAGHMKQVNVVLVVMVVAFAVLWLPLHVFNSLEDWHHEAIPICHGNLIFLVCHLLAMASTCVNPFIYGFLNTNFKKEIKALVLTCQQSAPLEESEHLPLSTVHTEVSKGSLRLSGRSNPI
With B1 the “EC50 (HTRF cAMP Gi assay)” value was greater than 5000 nM. With B2 the “EC50 (HTRF cAMP Gi assay)” value was greater than 5000 nM. For B3, the “EC50 (HTRF cAMP Gi assay)” value was greater than 5000 nM. In the case of B4, the “EC50 (HTRF cAMP Gi assay)” value is reported as greater than 5000 nM. Isovaleryl-APEK([AEEA-AEEA-γGlu-C18 diacid])PEEDATPEELQKYYVSLRHYYNWLTRQRY-NH2 [Compound 231] was tested, and the “EC50 (HTRF cAMP Gi assay)” value was greater than 5000 nM.

What follows are binders tested against T1, human neuropeptide Y2 receptor (human, UniProt P49146 1-381) (assay: cell-based or functional assay).
T1 sequence (looked up): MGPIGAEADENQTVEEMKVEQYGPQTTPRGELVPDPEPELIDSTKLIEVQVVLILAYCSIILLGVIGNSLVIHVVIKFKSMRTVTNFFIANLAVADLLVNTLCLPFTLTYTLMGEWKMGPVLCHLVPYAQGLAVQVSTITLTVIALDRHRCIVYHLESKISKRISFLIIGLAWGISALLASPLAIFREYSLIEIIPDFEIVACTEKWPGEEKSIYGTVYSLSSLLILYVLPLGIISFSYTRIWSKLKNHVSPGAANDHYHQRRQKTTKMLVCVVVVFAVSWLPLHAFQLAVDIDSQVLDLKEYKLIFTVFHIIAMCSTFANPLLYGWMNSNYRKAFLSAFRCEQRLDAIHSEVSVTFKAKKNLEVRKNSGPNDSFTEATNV
With B1 the “EC50 (HTRF cAMP Gi assay)” value was 0.152 nM. B2 was tested, and the “EC50 (HTRF cAMP Gi assay)” value was 0.284 nM. B3 was tested, and the “EC50 (HTRF cAMP Gi assay)” value was 0.235 nM. With B4 the “EC50 (HTRF cAMP Gi assay)” value was 0.106 nM. For Isovaleryl-APEK([AEEA-AEEA-γGlu-C18 diacid])PEEDATPEELQKYYVSLRHYYNWLTRQRY-NH2 [Compound 231], the “EC50 (HTRF cAMP Gi assay)” value was 0.107 nM.

These binders were tested against T2, human NPY1 receptor (human, UniProt P25929 1-384) (assay: cell-based or functional assay).
T2 sequence (looked up): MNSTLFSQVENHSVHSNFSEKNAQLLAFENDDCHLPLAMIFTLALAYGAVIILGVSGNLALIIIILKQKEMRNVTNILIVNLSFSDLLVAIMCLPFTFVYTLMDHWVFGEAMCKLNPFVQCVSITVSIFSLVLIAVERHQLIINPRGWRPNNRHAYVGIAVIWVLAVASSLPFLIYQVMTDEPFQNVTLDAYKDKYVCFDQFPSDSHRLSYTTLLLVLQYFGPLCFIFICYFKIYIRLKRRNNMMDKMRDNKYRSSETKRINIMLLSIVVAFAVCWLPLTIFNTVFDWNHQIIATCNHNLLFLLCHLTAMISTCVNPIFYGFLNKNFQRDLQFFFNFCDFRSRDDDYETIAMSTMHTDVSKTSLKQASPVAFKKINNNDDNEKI
B1 was tested, and the “EC50 (HTRF cAMP Gi assay)” value was greater than 5000 nM. In the case of B2, the “EC50 (HTRF cAMP Gi assay)” value is reported as greater than 5000 nM. With B3 the “EC50 (HTRF cAMP Gi assay)” value was greater than 5000 nM. B4 was tested, and the “EC50 (HTRF cAMP Gi assay)” value was greater than 5000 nM. For Isovaleryl-APEK([AEEA-AEEA-γGlu-C18 diacid])PEEDATPEELQKYYVSLRHYYNWLTRQRY-NH2 [Compound 231], the “EC50 (HTRF cAMP Gi assay)” value was greater than 5000 nM.

These binders were tested against T3, human NPY5 receptor (human, UniProt Q15761 1-445) (assay: cell-based or functional assay).
T3 sequence (looked up): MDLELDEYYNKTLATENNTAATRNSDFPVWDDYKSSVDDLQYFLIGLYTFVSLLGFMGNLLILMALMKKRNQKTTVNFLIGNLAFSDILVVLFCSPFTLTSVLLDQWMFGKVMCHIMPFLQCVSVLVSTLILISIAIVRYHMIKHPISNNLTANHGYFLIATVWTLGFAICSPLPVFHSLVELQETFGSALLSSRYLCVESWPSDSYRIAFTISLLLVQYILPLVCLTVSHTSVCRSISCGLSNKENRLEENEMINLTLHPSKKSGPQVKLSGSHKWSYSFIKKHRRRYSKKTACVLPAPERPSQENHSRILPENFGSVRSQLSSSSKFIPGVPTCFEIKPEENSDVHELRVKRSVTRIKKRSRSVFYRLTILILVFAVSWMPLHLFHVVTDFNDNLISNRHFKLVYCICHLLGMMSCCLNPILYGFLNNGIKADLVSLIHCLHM
For B1, the “EC50 (HTRF cAMP Gi assay)” value was greater than 5000 nM. In the case of B2, the “EC50 (HTRF cAMP Gi assay)” value is reported as greater than 5000 nM. With B3 the “EC50 (HTRF cAMP Gi assay)” value was greater than 5000 nM. With B4 the “EC50 (HTRF cAMP Gi assay)” value was greater than 5000 nM. With Isovaleryl-APEK([AEEA-AEEA-γGlu-C18 diacid])PEEDATPEELQKYYVSLRHYYNWLTRQRY-NH2 [Compound 231] the “EC50 (HTRF cAMP Gi assay)” value was greater than 5000 nM.

Each binder was assayed against T1, human neuropeptide Y2 receptor (assay: radioligand competition (125I-PYY(1-36)), hNPY2R membranes).
Outline: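 Commercial human Y2 receptor membranes (0.5 μg protein/well) were incubated with peptide for 2 h at room temperature in 50 mM HEPES, 5 mM MgCl₂, 1 mM CaCl₂, pH 7.4, with 0.2% ovalbumin. Bound radioligand was separated on PEI-soaked GF/C filters and counted by scintillation, and IC₅₀ came from nonlinear sigmoidal regression.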
B1 was tested, and the Ki was 3.3 nM. B2 was tested, and the Ki was 6.94 nM. B3 was tested, and the Ki was 4.33 nM. B4 gave a Ki of 3.09 nM. Isovaleryl-APEK([AEEA-AEEA-γGlu-C18 diacid])PEEDATPEELQKYYVSLRHYYNWLTRQRY-NH2 [Compound 231] showed a Ki of 1.96 nM.
